This is an account of results in patent publication US20250074943A1 (Amgen, published 2025).

Where “and” joins values, the source holds several entries; their conditions need not be identical. Identical values can stand only once. Bridge positions count the residues as written; N and C are the ends. Ends that are not written are not given here.

First the molecules themselves.
T1: recombinant DLL3 ectodomain (rhDLL3-Fc) (human, UniProt Q9NYJ7 27-492, biotinylated (NHS-LC-LC-biotin) in the BLI and SPR assays)
T1 construct: also called rDLL3-Fc; recombinant human DLL3 (rDLL3); not shown: Fc part
T1 sequence: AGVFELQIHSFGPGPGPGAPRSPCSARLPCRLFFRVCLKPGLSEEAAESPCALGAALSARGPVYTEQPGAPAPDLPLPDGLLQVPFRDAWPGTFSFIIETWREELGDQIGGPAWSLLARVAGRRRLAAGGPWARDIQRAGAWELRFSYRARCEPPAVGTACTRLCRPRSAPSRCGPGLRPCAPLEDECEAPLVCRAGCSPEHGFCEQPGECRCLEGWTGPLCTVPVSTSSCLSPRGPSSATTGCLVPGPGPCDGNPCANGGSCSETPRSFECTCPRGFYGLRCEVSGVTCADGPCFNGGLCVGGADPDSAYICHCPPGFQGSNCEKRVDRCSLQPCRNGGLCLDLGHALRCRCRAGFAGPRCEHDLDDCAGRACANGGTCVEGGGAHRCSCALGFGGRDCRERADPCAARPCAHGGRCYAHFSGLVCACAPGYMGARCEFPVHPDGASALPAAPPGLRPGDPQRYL

T2: human DLL3 expressed on the surface of cells (human, UniProt Q9NYJ7 27-618)
T2 construct: Stably transfected CHO or HEK293 cells; also called huDLL3; hDLL3
T2 sequence: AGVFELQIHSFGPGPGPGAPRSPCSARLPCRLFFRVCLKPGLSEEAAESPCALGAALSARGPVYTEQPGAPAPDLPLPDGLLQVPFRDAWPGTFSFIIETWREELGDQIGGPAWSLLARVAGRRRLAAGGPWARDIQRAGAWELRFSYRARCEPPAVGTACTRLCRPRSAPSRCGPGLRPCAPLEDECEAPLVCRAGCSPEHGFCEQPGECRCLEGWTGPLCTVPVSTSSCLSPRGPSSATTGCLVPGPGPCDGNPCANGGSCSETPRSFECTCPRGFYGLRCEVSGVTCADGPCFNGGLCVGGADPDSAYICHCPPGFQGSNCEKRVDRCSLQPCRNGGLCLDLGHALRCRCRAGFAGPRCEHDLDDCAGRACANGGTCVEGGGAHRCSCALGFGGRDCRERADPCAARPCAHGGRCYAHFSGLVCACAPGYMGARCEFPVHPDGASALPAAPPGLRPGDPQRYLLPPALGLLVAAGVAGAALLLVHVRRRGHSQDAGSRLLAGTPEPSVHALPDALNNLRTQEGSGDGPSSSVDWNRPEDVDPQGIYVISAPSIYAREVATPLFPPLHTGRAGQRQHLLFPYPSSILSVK

The first test deals with T1, recombinant DLL3 ectodomain (rhDLL3-Fc). The experiment in a line: phage ELISA on rDLL3-Fc. In general terms: ELISA stands for enzyme-linked immunosorbent assay.
Procedure: The pools of phages obtained after each round of selection were tested by Phage-ELISA for their binding to rDLL3-Fc and counter-screened on hIgG-Fc. Briefly, proteins were immobilized on NUNC-Maxisorp ELISA plates. Then the plates were washed and blocked. 100 μl of pre-blocked phages were added to the blocked plate and incubated for 1 hr at room temperature. Anti-M13 HRP conjugated mAb were added and the plates were read on a Multiskan Ascent (Thermo) Elisa reader at A370 nm after the addition of TMB (Sigma).
As to AETVEFWSCKWWGGAADEYTYSCGW (not shown: M13 pIII coat protein) [SEQ ID NO 44], the binding result is “binds”.

Consider AETVEFLGCHGDNSEWTCVW (not shown: M13 pIII coat protein) [SEQ ID NO 43], for which the binding result is listed as “binds”.

Regarding AETVEFYGCSMDWRGVTCAW (not shown: M13 pIII coat protein) [SEQ ID NO 49], the binding result was “binds”.

As for AETVEYWRCDWYEETVACGT (not shown: M13 pIII coat protein) [SEQ ID NO 47], the binding result was “binds”.

Regarding AETVEFWTCYWTEGVSGCRW (not shown: M13 pIII coat protein) [SEQ ID NO 46], the binding result is “binds”.

Take AETVEFWSCHYSYWTVSCGT (not shown: M13 pIII coat protein) [SEQ ID NO 48]: the binding result is listed as “binds”.

Regarding AETVEFYGCYGDRNDYTCTW (not shown: M13 pIII coat protein) [SEQ ID NO 42], the binding result is on record as “binds”.

Turning to AETVEFWDCWGNTDDWTCTW (not shown: M13 pIII coat protein) [SEQ ID NO 41], the binding result is “binds”.

Regarding AETVEFYGCTGDAYEYTCTW (not shown: M13 pIII coat protein) [SEQ ID NO 45], the binding result was “binds”.

As for AETVEFWTCHGNADEWTCSW (not shown: M13 pIII coat protein) [SEQ ID NO 52], the binding result is reported as “binds”.

AETVEFRGCTGNVYDWTCVW (not shown: M13 pIII coat protein) [SEQ ID NO 51]: the binding result was “binds”.

For a further test the target is unchanged. The experiment in a line: BLI (Octet), biotinylated rhDLL3-Fc on streptavidin sensors. The protocol:
Binding kinetic assays were performed using Bio-layer interferometry (BLI) technology. The recombinant DLL3 ectodomain (rhDLL3-Fc) was biotinylated using EZ-Link Sulfo-NHS-LC-LC-Biotin Kit according to the manufacturer's protocol (Pierce by Thermo Fisher Scientific). The recombinant protein was incubated with an excess of NHS-LC-LC Biotin ester, in a molar ratio of 1:3 (protein: biotin), at 25° C. for 90 min. The un-reacted biotin ester was removed by subsequent buffer exchange on 0.5 ml Zeba spin desalting columns 7K MWCO (Pierce by Thermo Fisher Scientific).
What is called Kd is the equilibrium constant for the complex coming apart. As to AETVEFYGCSMDWRGVTCAW-NH2 (disulfide 9-18 (inferred)) [PepSP1158], the Kd worked out at 643 nM and the “RT (residence time)” value was 31 s.

Take AETVEFYGCQYYGWDYTCAW-NH2 (disulfide 9-18 (inferred)) [PepSP1176]: the Kd amounted to 207 nM and the “RT (residence time)” value stood at 67 s.

For AETVEFDGCKGDWYEWTCWW-NH2 (disulfide 9-18 (inferred)) [PepSP1164], the Kd is 125 nM and the “RT (residence time)” value was 125 s.

Consider AETVEFRGCTGNVYDWTCVW-NH2 (disulfide 9-18 (inferred)) [PepSP1160], for which the Kd was determined as 494 nM and the “RT (residence time)” value was determined as 47 s.

For the molecule AETVEFYGCSVNADGWTCSW-NH2 (disulfide 9-18 (inferred)) [PepSP1170], the Kd worked out at 166 nM and the “RT (residence time)” value turned out to be 43 s.

Take AETVEYWRCDWYEETVACGT-NH2 (disulfide 9-18 (inferred)) [PepSP1155]: the Kd turned out to be 155 nM and the “RT (residence time)” value is 177 s.

For the molecule AETVEFYGCETYSGGWTCLW-NH2 (disulfide 9-18 (inferred)) [PepSP1167], the Kd came out at 399 nM and the “RT (residence time)” value came to 47 s.

For the molecule AETVEFYGCRGGDGEWTCVW-NH2 (disulfide 9-18 (inferred)) [PepSP1165], the Kd was 263 nM and the “RT (residence time)” value is 66 s.

On to AETVEFYGCWGNYNDYTCSW-NH2 (disulfide 9-18 (inferred)) [PepSP1177], for which the Kd is 236 nM and the “RT (residence time)” value is 52 s.

Take AETVEFYGCKWDWKGWTCAW-NH2 (disulfide 9-18 (inferred)) [PepSP1168]: the Kd is 568 nM and the “RT (residence time)” value stood at 44 s.

As for AETVEFYGCTGDAYEYTCTW-NH2 (disulfide 9-18 (inferred)) [PepSP1147], the Kd amounted to 59 nM and the “RT (residence time)” value was found to be 65.6 s.

For the molecule AETVEFDYCLWAPDAWGCQN-NH2 (disulfide 9-18) [PepSP1159], the Kd was 900 nM and the “RT (residence time)” value is 6 s.

As to AETVEFYGCYGDRNDYTCTW-NH2 (disulfide 9-18 (inferred)) [PepSP1178], the Kd was determined as 147 nM and the “RT (residence time)” value was found to be 75.9 s.

With WGCTGTWGNETCWW-NH2 (disulfide 3-12 (inferred), PepSP1146 without AETVEF) [PepSP1213], the Kd came to 7500 nM and the “RT (residence time)” value turned out to be 1.36 s.

Take AETVEFDYCYGDVEEWTCVY-NH2 (disulfide 9-18 (inferred)) [PepSP1166]: the Kd was determined as 145 nM and the “RT (residence time)” value amounted to 48 s.

On to AETVEFWTCHGNADEWTCSW-NH2 (disulfide 9-18 (inferred)) [PepSP1162], for which the Kd turned out to be 159 nM and the “RT (residence time)” value is 51 s.

As to WDCWGNTDDWTCTW-NH2 (disulfide 3-12 (inferred), PepSP1161 without AETVEF) [PepSP1269], the Kd was determined as 181 nM and the “RT (residence time)” value was determined as 20 s.

Regarding AETVEFWSCKWWGGAADEYTYSCGW-NH2 (disulfide 9-23 (inferred)) [PepSP1182], the Kd was found to be 75.8 nM and the “RT (residence time)” value stood at 96.6 s.

In the case of AETVEFWTCYWTEGVSGCRW-NH2 (disulfide 9-18 (inferred)) [PepSP1151], the Kd turned out to be 125 nM and the “RT (residence time)” value turned out to be 167 s.

On to AETVEFLGCHGDNSEWTCVW-NH2 (disulfide 9-18 (inferred)) [PepSP1163], for which the Kd was 69 nM and 68.7 nM; the “RT (residence time)” value was 167 s.

AETVEFYGCYGEQEQWTCLW-NH2 (disulfide 9-18 (inferred)) [PepSP1173]: the Kd turned out to be 106 nM and the “RT (residence time)” value worked out at 101 s.

AETVEFWSCHYSYWTVSCGT-NH2 (disulfide 9-18 (inferred)) [PepSP1157]: the Kd came to 123 nM and the “RT (residence time)” value amounted to 89 s.

A further test deals with T2, human DLL3 expressed on the surface of …. The experiment in a line: phage cell ELISA/FACS on DLL3-expressing cells.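 Further: phages incubated 1 h at room temperature with cells overexpressing human DLL3, read by flow cytometry fluorescence, then fixed-cell ELISA with anti-M13-HRP at A370 nm, parental cells alongside.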
Procedure: The pools of phages were also screened for their binding to cells overexpressing human DLL3 on their surface. Cells were detached, counted and re-suspended at 1.8×10⁶ cell/ml in FACS buffer containing 2% FBS. Pre-blocked phages were then added to the cells and incubated for 1 hr at room temperature. […] Cells were then washed and re-suspended into FACS buffer. Fluorescence was acquired using a flow cytometer (FACS Canto/Becton Dickinson).
Phage clones with signal higher than four-fold above the background were further tested for their binding to DLL3 on the surface of cells expressing DLL3 by cell ELISA. Briefly, parental cells and cells overexpressing DLL3 were plated on 96 well plate the day before the assay. The cells were then fixed and washed before the addition of pre-blocked phages as previously described. The cells were then washed and anti-M13-HRP was added. The signal was measured using a Multiskan Ascent (Thermo) ELISA reader at A370 nm.
As to AETVEFWSCKWWGGAADEYTYSCGW (not shown: M13 pIII coat protein) [SEQ ID NO 44], the binding result is reported as “binds”.

As to AETVEFLGCHGDNSEWTCVW (not shown: M13 pIII coat protein) [SEQ ID NO 43], the binding result is on record as “binds”.

Regarding AETVEFYGCSMDWRGVTCAW (not shown: M13 pIII coat protein) [SEQ ID NO 49], the binding result was “binds”.

As for AETVEYWRCDWYEETVACGT (not shown: M13 pIII coat protein) [SEQ ID NO 47], the binding result is recorded as “binds”.

Take AETVEFWTCYWTEGVSGCRW (not shown: M13 pIII coat protein) [SEQ ID NO 46]: the binding result was “binds”.

Regarding AETVEFWSCHYSYWTVSCGT (not shown: M13 pIII coat protein) [SEQ ID NO 48], the binding result is given as “binds”.

For the molecule AETVEFYGCYGDRNDYTCTW (not shown: M13 pIII coat protein) [SEQ ID NO 42], the binding result is given as “binds”.

In the case of AETVEFWDCWGNTDDWTCTW (not shown: M13 pIII coat protein) [SEQ ID NO 41], the binding result is listed as “binds”.

In the case of AETVEFYGCTGDAYEYTCTW (not shown: M13 pIII coat protein) [SEQ ID NO 45], the binding result is listed as “binds”.

For the molecule AETVEFWTCHGNADEWTCSW (not shown: M13 pIII coat protein) [SEQ ID NO 52], the binding result is on record as “binds”.

As to AETVEFRGCTGNVYDWTCVW (not shown: M13 pIII coat protein) [SEQ ID NO 51], the binding result was “binds”.
